Data set [1] concerns the target T1, DesKC_H188E, DesKC trapped in the phosphotransferase state (Bacillus subtilis, UniProt O34757, H188E).
T1 sequence: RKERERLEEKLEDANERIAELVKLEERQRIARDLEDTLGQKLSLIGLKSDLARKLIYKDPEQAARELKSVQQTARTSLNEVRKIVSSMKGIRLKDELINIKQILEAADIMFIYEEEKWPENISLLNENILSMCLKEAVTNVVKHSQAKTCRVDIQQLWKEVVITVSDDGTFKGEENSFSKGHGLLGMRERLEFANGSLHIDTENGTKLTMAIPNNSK
As to the kind of experiment: crystal structure.

The data set “SEC” deals with the molecule itself. As to the kind of experiment: SEC. (In general: In gel filtration, larger molecules generally elute earlier.)
Data set [2] deals with the molecule itself.

Substitutions are numbered along the chain they refer to. Numbers in names are those of the source.

B1: DesR_REC-Q10A, receiver domain of DesR with Q10A, as crystallised with DesKC_H188E (domain or fragment)
chain: MISIFIAEDAQMLLGALGSLLNLEDDMEVVGKGTTGQDAVDFVKKRQPDVCIMDIEMPGKTGLEAAEELKDTGCKIIILTTFARPGYFQRAIKAGVKGYLLKDSPSEELANAIRSVMNGKRIYAPELMEDLYSEA
With B1, the binding result in data set [1] is listed as “binds”.

B2: Phosphorylated DesR-REC (P~DesRREC), wild type (domain or fragment)
chain: B1 chain with A10Q
B2: in the data set “SEC”, the binding result was “binds”.

B3: Phosphorylated DesR_REC-Q10A (domain or fragment)
chain: B1 chain
A word on the Kd: it is the free concentration of one partner at which half of the binding sites on the other are occupied at equilibrium, for simple one-to-one binding. Low values mean tighter binding, high ones weaker binding. As for B3, in data set [2], the Kd worked out at 1.44 µM and the “fold increase of the KD of dimerization against wild type P~RR” value stood at 4 fold.

The values above are taken from publication doi:10.1101/2021.11.12.468217 (bioRxiv, 2021).
